Positions count from the first letter of the chain named.
How the values were obtained:
rhVEGF165 = rhVEGF165 (human, UniProt P15692 27-191, limits assumed); assay: cell-based or functional assay
VEGF [1] = biological target: T1, VEGF (human, UniProt P15692-4 27-191, limits assumed); assay: competition ELISA: biotinylated VEGF preincubated with F(ab), capture on KDR-IgG
T1 construct: also called human VEGF; biotinylated VEGF
Description: (§1) Diluted conditioned medium containing 3 ng/ml of KDR-IgG (Park et al., J. Biol. Chem. 269:25646–[…] (1994)) in blocking buffer were incubated on the plate for 1 h. […] The solutions from the tubes were then transferred to the ELISA plates and incubated for 1 h. […] Titration curves were fit with a four-parameter nonlinear regression curve-fitting program (KaleidaGraph, Synergy Software, Reading Pa.). […] Assays for full-length IgG were the same as for the F(ab)s except that the assay buffer contained 10% human serum.

VEGF [2] = biological target: T1, VEGF; assay: competition ELISA (VEGF/KDR-IgG)
Description: as §1

VEGF [3] = biological target: T1, VEGF; assay: competition ELISA: biotinylated VEGF preincubated with IgG, capture on KDR-IgG, 10% human serum
Description: as §1
[c]murIgG1 is muMAbVEGF A461 purified from ascites.

VEGF121 [4] = biological target: T2, VEGF121 (human, UniProt P15692-9 27-147); assay: BIAcore SPR, VEGF121 immobilized, Fab in solution
T2 construct: also called Purified VEGF121
T2 sequence (looked up): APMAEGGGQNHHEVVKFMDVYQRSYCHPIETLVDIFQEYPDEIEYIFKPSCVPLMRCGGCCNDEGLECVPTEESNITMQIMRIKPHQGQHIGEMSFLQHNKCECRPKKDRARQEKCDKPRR
Description: (§2) Binding of humanized A4.6.1 Fab variants was measured by flowing solutions of Fab in PBS/0.05% TWEEN 20™ over the chip at a flow rate of 20 μL/min. Following each binding measurement, residual Fab was stripped from the immobilized ligand by washing with 5 μL of 50 mM aqueous HCl at 3 μL/min. Binding profiles were analyzed by nonlinear regression using a simple monovalent binding model (BIAevaluation software v2.0; Pharmacia).

VEGF121 [5] = biological target: T2, VEGF121; assay: BIAcore SPR, VEGF121 immobilized
Description: as §2

B1: Y0313-1 (Fab, V domains shown)
VH: EVQLVESGGGLVQPGGSLRLSCAASGYDFTHYGMNWVRQAPGKGLEWVGWINTYTGEPTYAADFKRRFTFSLDTSKSTAYLQMNSLRAEDTAVYYCAKYPYYYGTSHWYFDVWGQGTL
VL: DIQLTQSPSSLSASVGDRVTITCRANEQLSNYLNWYQQKPGKAPKVLIYFTSSLHSGVPSRFSGSGSGTDFTLTISSLQPEDFATYYCQQYSTVPWTFGQGTKVEIKR
rhVEGF165
  potency in the HuVEC assay against the wild-type Fab (Y0192): 30 fold

B2: F(ab)-4 (Fab, V domains shown)
VH: EVQLVESGGGLVQPGGSLRLSCAASGYTFTNYGMNWVRQAPGKGLEWVGWINTYTGEPTYAADFKRRFTISLDTSKNTLYLQMNSLRAEDTAVYYCARYPHYYGSSHWYFDVWGQGTLVTVSS
VL: DIQMTQSPSSLSASVGDRVTITCSASQDISNYLNWYQQKPGKAPKLLIYFTSSLHSGVPSRFSGSGSGTDFTLTISSLQPEDFATYYCQQYSTVPWTFGQGTKVEIK
notes: F(ab)-1 with ArgH71Leu and AsnH73Thr; human CL and CH1
VEGF [1]
  EC50 F(ab)-X / EC50 chimeric F(ab): > 295 ratio
VEGF [2]
  fold improvement of binding against F(ab)-1: 4 fold

B3: chimeric IgG1 (antibody, V domains shown)
VH: EIQLVQSGPELKQPGETVRISCKASGYTFTNYGMNWVKQAPGKGLKWMGWINTYTGEPTYAADFKRRFTFSLETSASTAYLQISNLKNDDTATYFCAKYPHYYGSSHWYFDVWGAGTTVTVSS
VL: DIQMTQTTSSLSASLGDRVIISCSASQDISNYLNWYQQKPDGTVKVLIYFTSSLHSGVPSRFSGSGSGTDYSLTISNLEPEDIATYYCQQYSTVPWTFGGGTKLEIKR
notes: Murine A4.6.1 VL and VH fused to human kappa CL and human IgG1 heavy chain constant domains; also called chIgG1; chlgG1
VEGF [3]
  IgG1/chlgG1 (ratio of EC50): 1 ratio

B4: muMAb VEGF A.4.6.1 (antibody, V domains shown)
VH: B3 VH
VL: B3 VL
notes: Original murine IgG1 purified from ascites; also called murIgG1; murlgG1
VEGF [3]
  IgG1/chlgG1 (ratio of EC50): 0.759 ratio

B5: F(ab)-3 (Fab, V domains shown)
VH: B3 VH
VL: B2 VL
VEGF [1]
  EC50 F(ab)-X / EC50 chimeric F(ab): 2.6 ratio

B6: hu2.10 (Fab, V domains shown)
VH: B2 VH with V37I, K76A, N77S, L79V, R98K
VL: B2 VL with F71Y
notes: Phage-selected consensus clone, tested as soluble Fab; also called consensus clone hu2.10
VEGF121 [4]
  KD(A4.6.1)/KD(mut) as headed; fold weaker than the A4.6.1 chimera: 35 ratio

B7: hu2.10V (Fab, V domains shown)
VH: B2 VH with V37I, K76A, N77S, L79V, R98K
VL: B2 VL with L46V, F71Y
notes: hu2.10 with Leu to Val at VL 46; soluble Fab
VEGF121 [5]
  fold improvement of KD against hu2.10: 6 fold
VEGF121 [4]
  KD(A4.6.1)/KD(mut) as headed; fold weaker than the A4.6.1 chimera: 5.8 ratio

Source: patent US6884879
